T1: human FcγRIIa type R (allotype R131) extracellular domain with C-terminal His tag (human, UniProt P12318 34-217)
T1 construct: also called FcγRIIaR
T1 chain: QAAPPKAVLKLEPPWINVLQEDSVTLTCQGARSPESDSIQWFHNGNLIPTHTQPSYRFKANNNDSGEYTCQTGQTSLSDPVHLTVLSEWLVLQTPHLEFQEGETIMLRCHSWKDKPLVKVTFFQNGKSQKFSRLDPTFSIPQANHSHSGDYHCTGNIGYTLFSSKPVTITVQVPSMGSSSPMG

T2: human FcγRIIb extracellular domain with C-terminal His tag (human, UniProt P31994 43-217)
T2 construct: extracellular domain; not shown: His tag at the C terminus
T2 sequence (looked up): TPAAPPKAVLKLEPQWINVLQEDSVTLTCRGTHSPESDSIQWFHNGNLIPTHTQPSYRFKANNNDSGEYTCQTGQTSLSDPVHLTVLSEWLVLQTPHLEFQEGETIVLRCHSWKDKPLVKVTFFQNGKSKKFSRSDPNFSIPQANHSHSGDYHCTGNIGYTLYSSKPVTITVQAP


How the values were obtained:
[1] = target: T1, human FcγRIIa type R (allotype R131) …; assay: SPR (Biacore), antibody captured, FcγR analyte
[2] = target: T3, human FcγRIIIa type V (allotype V158) extracellular domain with C-terminal His tag (human, UniProt P08637 17-208); assay: SPR (Biacore), antibody captured, FcγR analyte
T3 construct: also called FcγRIIIaV
T3 sequence (P08637 other isoform, or with tags, fused parts or gaps): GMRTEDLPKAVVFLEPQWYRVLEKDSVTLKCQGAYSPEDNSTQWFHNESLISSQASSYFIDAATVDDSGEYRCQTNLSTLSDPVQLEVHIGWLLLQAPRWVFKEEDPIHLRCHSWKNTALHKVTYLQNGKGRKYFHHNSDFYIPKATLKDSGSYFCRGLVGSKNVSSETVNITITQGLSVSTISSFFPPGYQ

[3] = target: T2, human FcγRIIb extracellular domain with …; assay: SPR (Biacore); parent is IL6R-B3/IL6R-L
[4] = target: T2, human FcγRIIb extracellular domain with …; assay: ratio of SPR KDs, FcγRIIaH over FcγRIIb
[5] = target: T2, human FcγRIIb extracellular domain with …; assay: ratio of SPR KDs, FcγRIIaR over FcγRIIb
[6] = target: T4, human FcγRIa extracellular domain with C-terminal His tag (human, UniProt P12314 16-292); assay: SPR (Biacore), antibody captured, FcγR analyte
T4 construct: not shown: His tag at the C terminus
T4 sequence (P12314 16-292): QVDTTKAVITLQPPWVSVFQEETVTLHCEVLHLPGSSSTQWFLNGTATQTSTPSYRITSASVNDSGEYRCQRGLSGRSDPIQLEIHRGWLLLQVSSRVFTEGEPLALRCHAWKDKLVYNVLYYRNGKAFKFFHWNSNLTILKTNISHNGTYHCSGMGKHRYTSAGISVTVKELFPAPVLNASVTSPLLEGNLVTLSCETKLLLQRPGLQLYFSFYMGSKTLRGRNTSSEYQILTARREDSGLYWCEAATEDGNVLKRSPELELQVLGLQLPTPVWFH

Row | Kd [1] [µM] | Kd [2] [µM] | KD(IIb) of the parent polypeptide/KD(IIb) of altered polypeptide [3] [fold] | KD(IIaH)/KD(IIb) [4] | KD(IIaR)/KD(IIb) [5] | Kd [6] [µM] | Binder
1 | 3.5 | 69 | – | – | – | – | IL6R-BP112/IL6R-L (antibody, human IgG1, kappa, name in EU numbering, Alterations introduced into IL6R-B3; also called P238D/P271G; copies: 2 + 2) heavy: QVQLQESGPGLVKPSETLSLTCAVSGHSISHDHAWSWVRQPPGEGLEWIGFISYSGITNYNPSLQGRVTISRDNSKNTLYLQMNSLRAEDTAVYYCARSLARTTAMDYWGEGTLVTVSSASTKGPSVFPLAPSSKSTSGGTAALGCLVKDYFPEPVTVSWNSGALTSGVHTFPAVLQSSGLYSLSSVVTVPSSSLGTQTYICNVNHKPSNTKVDKKVEPKSCDKTHTCPPCPAPELLGGDSVFLFPPKPKDTLMISRTPEVTCVVVDVSHEDGEVKFNWYVDGVEVHNAKTKPREEQYNSTYRVVSVLTVLHQDWLNGKEYKCKVSNKALPAPIEKTISKAKGQPREPQVYTLPPSRDELTKNQVSLTCLVKGFYPSDIAVEWESNGQPENNYKTTPPVLDSDGSFFLYSKLTVDKSRWQQGNVFSCSVMHEALHNHYTQESLSLSP light: not shown
2 | – | – | 62.3 | 201 | 18.2 | 0.026 | IL6R-BP195/IL6R-L (antibody, human IgG1, kappa, name in EU numbering, EU numbering; copies: 2 + 2) heavy: QVQLQESGPGLVKPSETLSLTCAVSGHSISHDHAWSWVRQPPGEGLEWIGFISYSGITNYNPSLQGRVTISRDNSKNTLYLQMNSLRAEDTAVYYCARSLARTTAMDYWGEGTLVTVSSASTKGPSVFPLAPSSKSTSGGTAALGCLVKDYFPEPVTVSWNSGALTSGVHTFPAVLQSSGLYSLSSVVTVPSSSLGTQTYICNVNHKPSNTKVDKKVEPKSCDKTHTCPPCPAPDYLGDDSVFLFPPKPKDTLMISRTPEVTCVVVDVSDEDGEVKFNWYVDGVEVHNAKTKPREEQDNSTYRVVSVLTVLHQDWLNGKEYKCKVSNAALPKPIEKTISKAKGQPREPQVYTLPPSRDELTKNQVSLTCLVKGFYPSDIAVEWESNGQPENNYKTTPPVLDSDGSFFLYSKLTVDKSRWQQGNVFSCSVMHEALHNHYTQESLSLSP light: not shown
3 | – | – | 15.7 | 102 | 11 | – | IL6R-BP198/IL6R-L (antibody, human IgG1, kappa, name in EU numbering, EU numbering; copies: 2 + 2) heavy: QVQLQESGPGLVKPSETLSLTCAVSGHSISHDHAWSWVRQPPGEGLEWIGFISYSGITNYNPSLQGRVTISRDNSKNTLYLQMNSLRAEDTAVYYCARSLARTTAMDYWGEGTLVTVSSASTKGPSVFPLAPSSKSTSGGTAALGCLVKDYFPEPVTVSWNSGALTSGVHTFPAVLQSSGLYSLSSVVTVPSSSLGTQTYICNVNHKPSNTKVDKKVEPKSCDKTHTCPPCPAPDYLGGDSVFLFPPKPKDTLMISRTPEVTCVVVDVSDEDGEVKFNWYVDGVEVHNAKTKPREEQYNSTYRVVSVLTVLHQDWLNGKEYKCKVSNAALPKPIEKTISKAKGQPREPQVYTLPPSRDELTKNQVSLTCLVKGFYPSDIAVEWESNGQPENNYKTTPPVLDSDGSFFLYSKLTVDKSRWQQGNVFSCSVMHEALHNHYTQESLSLSP light: not shown

Reference: patent publication US20240279325A1 (Chugai, published 2024)
